Paper PMC9499646, “Histidine-Rich Glycoprotein Suppresses the S100A8/A9-Mediated Organotropic Metastasis of Melanoma Cells” (International Journal of Molecular Sciences, 2022)

Molecular target: T1, histidine-rich glycoprotein (HRG), human plasma (human, UniProt P04196 19-525, glycosylated (a total of about 20-KDa glycosyl chains))
T1 construct: histidine-rich glycoprotein, human plasma protein; 525 amino acids before processing and secretion; In the pull-down three bands (BP1, BP2, BP3) were all identified as HRG; BP2 and BP3 were estimated to be proteolytic products of BP1; also called plasma HRG; BP1; source: endogenous, healthy human plasma (pull-down)
T1 sequence (looked up): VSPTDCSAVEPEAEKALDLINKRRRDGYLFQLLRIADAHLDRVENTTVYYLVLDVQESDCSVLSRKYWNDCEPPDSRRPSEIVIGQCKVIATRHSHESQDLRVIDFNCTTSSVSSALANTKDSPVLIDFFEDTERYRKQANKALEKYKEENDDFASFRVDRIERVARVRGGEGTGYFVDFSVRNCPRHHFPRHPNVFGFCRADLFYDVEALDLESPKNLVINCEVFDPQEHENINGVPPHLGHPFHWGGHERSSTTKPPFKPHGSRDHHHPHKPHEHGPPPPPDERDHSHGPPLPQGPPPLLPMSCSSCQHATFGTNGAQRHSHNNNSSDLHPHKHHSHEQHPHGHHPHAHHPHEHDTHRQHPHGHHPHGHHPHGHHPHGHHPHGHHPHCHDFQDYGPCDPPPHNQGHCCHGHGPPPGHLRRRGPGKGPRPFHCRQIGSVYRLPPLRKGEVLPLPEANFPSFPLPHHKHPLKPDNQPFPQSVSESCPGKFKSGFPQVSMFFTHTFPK
Assay: ELISA; 96-well plate coated with purified HRG (100 µg/mL); blocked with Blockmaster DB1130; biotinylated S100A8/A9 at different concentrations; HRP-streptavidin, TMB; background of wells without HRG deducted
Conditions: both partners purified

binding result: binds
B1: human recombinant S100A8/A9 heterodimer (complex)
chain 1: MLTELEKALNSIIDVYHKYSLIKGNFHAVYRDDLKKLLETECPQYIRKKGADVWFKELDINTDGAVNFQEFLILVIKMGVAAHKKSHEESHKE
chain 2: MTCKMSQLERNIETIINTFHQYSVKLGHPDTLNQGEFKELVRKDLQNFLKKENKNEKVIEHIMEDLDTNADKQLSFEEFIMLMARLTWASHEKMHEGDEGPGHHHKPGLGEGTP
modifications: biotinylated in the ELISA (chain and site not stated) | biotinylated in the ELISA (chain and site not stated)
notes: S100A8 (Calgranulin A), human; S100A9 (Calgranulin B), human; Biotinylated in the ELISA; no biotin is mentioned for the cell assays; also called recombinant human S100A8/A9 heterodimer complex; biotinylated human recombinant S100A8/A9 protein; source: recombinant, highly purified, prepared as described previously [43]
